According to article PMC7893005:

Columns and labels:
[1] = target: gelatin derived from type I collagen from rat tail (acetylated collagen denatured at 95 °C for 10 min) (rat) (UniProt P02454)
[2] = target: acetylated, soluble type I collagen from rat tail, natively folded (triple-helical) (rat) (UniProt P02454)

Substance | KM of gelatin degradation (Michaelis-Menten kinetics, discontinuous cleavage assay with fluorescamine detection of neo-N-termini, 25 °C) [1] | KM of degradation of natively folded type I collagen (Michaelis-Menten kinetics, discontinuous cleavage assay with fluorescamine detection of neo-N-termini, 25 °C) [2]
ColG collagenase unit from Clostridium histolyticum (from UniProt Q9X721 119-789) (enzyme) | 1.35 µM | 3.4 µM
ColQ1 collagenase unit (Y94-G765) from Bacillus cereus strain Q1 (from UniProt B9J3S4 94-765) (enzyme) | 1.36 µM | 1.72 µM
